Assay results published in patent publication US20260167710A1 (GlaxoSmithKline, published 2026).

Columns and labels:
IL-33 95-270 = molecular target: T1, IL-33 95-270 (UniProt O95760 95-270); test: cell-based or functional assay
T1 sequence (looked up): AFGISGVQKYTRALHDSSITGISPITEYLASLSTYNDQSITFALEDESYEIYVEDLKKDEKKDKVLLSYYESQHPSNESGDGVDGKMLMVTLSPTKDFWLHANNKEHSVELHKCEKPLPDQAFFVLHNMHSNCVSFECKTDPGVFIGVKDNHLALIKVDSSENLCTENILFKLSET

IL-33 99-270 = molecular target: T2, IL-33 99-270 (UniProt O95760 99-270); test: cell-based or functional assay
T2 sequence (looked up): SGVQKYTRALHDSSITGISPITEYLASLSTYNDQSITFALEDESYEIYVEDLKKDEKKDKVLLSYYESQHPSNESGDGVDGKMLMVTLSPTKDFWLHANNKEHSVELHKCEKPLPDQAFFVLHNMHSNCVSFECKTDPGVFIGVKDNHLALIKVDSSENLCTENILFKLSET

IL-33 109-270 = molecular target: T3, IL-33 109-270 (UniProt O95760 109-270); test: cell-based or functional assay
T3 sequence (looked up): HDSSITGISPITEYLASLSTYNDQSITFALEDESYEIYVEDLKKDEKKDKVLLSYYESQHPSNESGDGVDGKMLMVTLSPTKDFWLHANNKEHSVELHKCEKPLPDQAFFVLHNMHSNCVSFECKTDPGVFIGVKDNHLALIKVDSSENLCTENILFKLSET

spIL-33 = test: cell-based or functional assay
[1] = molecular target: T4, Mature IL-33 (IL-33 113-270) (UniProt O95760 113-270); test: cell-based or functional assay
T4 sequence (looked up): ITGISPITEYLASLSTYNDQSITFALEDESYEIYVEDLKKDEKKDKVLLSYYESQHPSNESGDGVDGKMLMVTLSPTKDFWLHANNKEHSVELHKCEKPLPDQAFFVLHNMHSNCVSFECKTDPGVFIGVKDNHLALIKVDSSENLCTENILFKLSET

human IL-33 [2] = molecular target: T5, human IL-33 (human, Biotinylated in Example 2; the site is not stated.); test: cell-based or functional assay
T5 chain: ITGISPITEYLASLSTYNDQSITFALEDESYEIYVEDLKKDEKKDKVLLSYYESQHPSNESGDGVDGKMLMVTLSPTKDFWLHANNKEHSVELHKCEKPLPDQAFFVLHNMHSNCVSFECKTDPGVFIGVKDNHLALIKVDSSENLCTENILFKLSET

human IL-33 [3] = molecular target: T5, human IL-33; test: cell-based or functional assay
[4] = molecular target: T6, human complement component C1q (human, UniProt P02745 23-245; P02746 28-253; P02747 29-245); test: SPR (ProteOn XPR36), antibody immobilised by amine coupling, C1q as analyte, equilibrium fit, 25 C
T6 construct: also called human recombinant soluble complement C1q; Sigma #C1740-5 mg
T6 sequence (P02745 23-245 limits assumed, chain 1 of 3): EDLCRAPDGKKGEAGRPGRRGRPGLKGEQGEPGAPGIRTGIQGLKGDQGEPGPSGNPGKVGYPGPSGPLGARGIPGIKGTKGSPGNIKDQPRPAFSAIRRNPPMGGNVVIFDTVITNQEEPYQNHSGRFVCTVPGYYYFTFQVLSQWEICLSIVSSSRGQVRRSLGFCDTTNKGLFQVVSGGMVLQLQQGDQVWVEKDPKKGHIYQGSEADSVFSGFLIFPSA
T6 sequence (P02746 28-253 limits assumed, chain 2 of 3): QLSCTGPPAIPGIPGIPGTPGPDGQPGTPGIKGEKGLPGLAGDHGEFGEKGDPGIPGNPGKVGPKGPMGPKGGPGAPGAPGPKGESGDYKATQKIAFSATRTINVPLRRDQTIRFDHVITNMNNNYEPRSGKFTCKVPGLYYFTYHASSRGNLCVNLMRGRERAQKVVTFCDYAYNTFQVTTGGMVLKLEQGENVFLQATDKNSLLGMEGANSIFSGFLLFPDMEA
T6 sequence (P02747 29-245 limits assumed, chain 3 of 3): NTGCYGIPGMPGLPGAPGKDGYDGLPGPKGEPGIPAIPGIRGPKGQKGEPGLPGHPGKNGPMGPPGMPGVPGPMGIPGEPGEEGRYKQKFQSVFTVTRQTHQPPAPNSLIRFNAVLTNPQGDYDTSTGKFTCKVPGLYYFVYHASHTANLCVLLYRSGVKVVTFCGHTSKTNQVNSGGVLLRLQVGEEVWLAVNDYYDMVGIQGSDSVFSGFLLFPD

B1: 22A06-458 (antibody, human IgG1, kappa)
heavy: QVQLVQSGAEVKKPGASVKVSCKASGYTFISYGMHWVRQAPGQGLEWMGEINPHGGSTSYAQKFKGRVTMTRDTSTSTVYMELSSLRSEDTAVYYCARPSAAYSHYLGIDLWGRGTLVTVSSASTKGPSVFPLAPSSKSTSGGTAALGCLVKDYFPEPVTVSWNSGALTSGVHTFPAVLQSSGLYSLSSVVTVPSSSLGTQTYICNVNHKPSNTKVDKKVEPKSCDKTHTCPPCPAPELLGGPSVFLFPPKPKDTLYITREPEVTCVVVDVSHEDPEVKFNWYVDGVEVHNAKTKPREEQYNSTYRVVSVLTVLHQDWLNGKEYKCKVSNKALPAPIEKTISKAKGQPREPQVYTLPPSRDELTKNQVSLTCLVKGFYPSDIAVEWESNGQPENNYKTTPPVLDSDGSFFLYSKLTVDKSRWQQGNVFSCSVMHEALHNHYTQKSLSLSPGK
light: DIQMTQSPSSVSASVGDRVTITCRASQGISSWLAWYQQKPGKAPKLLIYAASRLQSGVPSRFSGSGSGTDFTLTISSLQPEDFATYYCQQANVFPLTFGGGTKVEIKRTVAAPSVFIFPPSDEQLKSGTASVVCLLNNFYPREAKVQWKVDNALQSGNSQESVTEQDSKDSTYSLSSTLTLSKADYEKHKVYACEVTHQGLSSPVTKSFNRGEC
Q: How did the “IC50, inhibition of 25 pM IL-33 isoform in HEK-Blue reporter assay” value (from here on “IC50, inhibition of 25 pM IL-33 isoform”) (IL-33 95-270) turn out when B1 was run?
A: Its value is 162 pM.

Q: What about the “IC50, inhibition of 25 pM IL-33 isoform” value (IL-33 99-270) of the same binder?
A: The value was 436 pM.

Q: What about the “IC50, inhibition of 25 pM IL-33 isoform” value (IL-33 109-270) of the same binder?
A: Its value is 254 pM.

Q: What about the “IC50, inhibition of 25 pM IL-33 isoform” value (spIL-33) of the same binder?
A: The value was 90.3 pM.

Q: What about the “IC50, inhibition of 25 pM IL-33 isoform” value [1] of the same binder?
A: Its value is 18.2 pM.

Q: What about the “IC50, inhibition of 100 ng/mL IL-33/IL-12 induced IFN-γ secretion from whole blood, pre-complexed, Mean” value (human IL-33 [2]) of the same binder?
A: The value was 3.9 nM.

Q: And the “IC50, inhibition of 100 ng/mL IL-33/IL-12 induced IFN-γ secretion from whole blood, pre-complexed, donor #91232” value (human IL-33 [2])?
A: Its value is 2.79 nM.

Q: What about the “IC50, inhibition of 100 ng/mL IL-33/IL-12 induced IFN-γ secretion from whole blood, pre-complexed, donor #91845” value (human IL-33 [2]) of the same binder?
A: The value was 5.75 nM.

Q: And the “IC50, inhibition of 100 ng/mL IL-33/IL-12 induced IFN-γ secretion from whole blood, pre-complexed, donor #91865” value (human IL-33 [2])?
A: Its value is 0.88 nM.

Q: What about the “IC50, inhibition of 100 ng/mL IL-33/IL-12 induced IFN-γ secretion from whole blood, pre-complexed, donor #92023” value (human IL-33 [2]) of the same binder?
A: Its value is 3.43 nM.

Q: What about the “IC50, inhibition of 100 ng/mL IL-33/IL-12 induced IFN-γ secretion from whole blood, pre-complexed, donor #92186” value (human IL-33 [2]) of the same binder?
A: Its value is 3.01 nM.

Q: What about the “IC50, inhibition of 100 ng/mL IL-33/IL-12 induced IFN-γ secretion from whole blood, pre-complexed, donor #92187” value (human IL-33 [2]) of the same binder?
A: The value was 4.75 nM.

Q: And the “IC50, inhibition of 100 ng/mL IL-33/IL-12 induced IFN-γ secretion from whole blood, pre-complexed, donor #92257” value (human IL-33 [2])?
A: Its value is 2.66 nM.

Q: What about the “IC50, inhibition of 100 ng/mL IL-33/IL-12 induced IFN-γ secretion from whole blood, pre-complexed, donor #92258” value (human IL-33 [2]) of the same binder?
A: Its value is 7.9 nM.

Q: And the “pIC50, inhibition of 100 ng/mL IL-33/IL-12 induced IFN-γ secretion from whole blood, pre-complexed, Mean” value (human IL-33 [2])?
A: The value was 8.48.

Q: And the “pIC50, inhibition of 100 ng/mL IL-33/IL-12 induced IFN-γ secretion from whole blood, pre-complexed, donor #91232” value (human IL-33 [2])?
A: The value was 8.55.

Q: What about the “pIC50, inhibition of 100 ng/mL IL-33/IL-12 induced IFN-γ secretion from whole blood, pre-complexed, donor #91845” value (human IL-33 [2]) of the same binder?
A: The value was 8.24.

Q: What about the “pIC50, inhibition of 100 ng/mL IL-33/IL-12 induced IFN-γ secretion from whole blood, pre-complexed, donor #91865” value (human IL-33 [2]) of the same binder?
A: The value was 9.05.

Q: What about the “pIC50, inhibition of 100 ng/mL IL-33/IL-12 induced IFN-γ secretion from whole blood, pre-complexed, donor #92023” value (human IL-33 [2]) of the same binder?
A: Its value is 8.46.

Q: And the “pIC50, inhibition of 100 ng/mL IL-33/IL-12 induced IFN-γ secretion from whole blood, pre-complexed, donor #92186” value (human IL-33 [2])?
A: Its value is 8.52.

Q: And the “pIC50, inhibition of 100 ng/mL IL-33/IL-12 induced IFN-γ secretion from whole blood, pre-complexed, donor #92187” value (human IL-33 [2])?
A: Its value is 8.32.

Q: And the “pIC50, inhibition of 100 ng/mL IL-33/IL-12 induced IFN-γ secretion from whole blood, pre-complexed, donor #92257” value (human IL-33 [2])?
A: Its value is 8.58.

Q: What about the “pIC50, inhibition of 100 ng/mL IL-33/IL-12 induced IFN-γ secretion from whole blood, pre-complexed, donor #92258” value (human IL-33 [2]) of the same binder?
A: The value was 8.1.

Q: And the “IC50, inhibition of 1 ng/mL human IL-33 induced IL-6 production, mouse bone marrow-derived mast cells” value (human IL-33 [3])?
A: Its value is 0.0312 nM.

Q: What about the “IC50, inhibition of 1 ng/mL human IL-33 induced IL-13 production, mouse bone marrow-derived mast cells” value (human IL-33 [3]) of the same binder?
A: The value was 0.028 nM.

Q: And the “IC50, inhibition of 1 ng/mL human IL-33 induced IL-18 production, mouse bone marrow-derived mast cells” value (human IL-33 [3])?
A: Its value is 0.0613 nM.

Q: What about the “IC50, inhibition of 1 ng/mL human IL-33 induced TNF-α production, mouse bone marrow-derived mast cells” value (human IL-33 [3]) of the same binder?
A: The value was 0.0374 nM.

Q: And the “pIC50, inhibition of 1 ng/mL human IL-33 induced IL-6 production, mouse bone marrow-derived mast cells” value (human IL-33 [3])?
A: Its value is 10.5.

Q: And the “pIC50, inhibition of 1 ng/mL human IL-33 induced IL-13 production, mouse bone marrow-derived mast cells” value (human IL-33 [3])?
A: Its value is 0.55.

Q: And the “pIC50, inhibition of 1 ng/mL human IL-33 induced IL-18 production, mouse bone marrow-derived mast cells” value (human IL-33 [3])?
A: Its value is 10.2.

Q: And the “pIC50, inhibition of 1 ng/mL human IL-33 induced TNF-α production, mouse bone marrow-derived mast cells” value (human IL-33 [3])?
A: Its value is 10.4.

Q: And the Kd [4]?
A: The Kd was 213 nM.
